Patent publication US6800481B1, “Stable macroscopic membranes formed by self-assembly of amphiphilic peptides and uses therefor” (priority 1992, dated 2004)
Substitutions are numbered along the chain they refer to. Entries after “also recorded” stand apart in the source; their conditions may differ.

B1: zuotin: 433 amino acid yeast putative Z-DNA binding protein, SEQ ID NO: 2 (protein)
chain: MFSLPTLTSDITVEVNSSATKTPFVRRPVEPVGKFFLQHAQRTLRNHTWSEFERIEAEKNVKTVDESNVDPDELLFDTELADEDLLTHDARDWKTADLYAAMGLSKLRFRATESQIIKAHRKQVVKYHPDKQSAAGGSLDQDGFFKIIQKAFETLTDSNKRAQYDSCDFVADVPPPKKGTDYDFYEAWGPVFEAEARFSKKTPIPSLGNKDSSKKEVEQFYAFWHRFDSWRTFEFLDEDVPDDSSNRDHKRYIERKNKAARDKKKTADNARLVKLVERAVSEDPRIKMFKEEEKKEKERRKWEREAGARAEAEAKAKAEAEAKAKAESEAKANASAKADKKKAKEAAKAAKKKNKRAIRNSAKEADYFGDADKATTIDEQVGLIVDSLNDEELVSTADKIKANAAGAKEVLKESAKTIVDSGKLPSSLLSYFV
B2: bacterially expressed zuotin: zuotin expressed in E. coli with T7 pET system, Phe→Val after Met (protein, UniProt P32527 1-433, looked up, variant F2V)
Zuotin: B1 chain with F2V

What was measured:
B-DNA = test: Binding of small peptides to B-DNA and conversion to the Z conformation; assay type: biochemical
Excerpt: A subportion of this histone-like region from amino acids 306 to 339 (heavily underlined in FIG. 1) is a likely candidate for a DNA-binding domain. […] The KAKAX motif (SEQ ID NO: 31) (where X is variable) occurs twice in the 306-339 region and also occurs in the peptide, EAK16. These observations are consistent with the structural similarity of this region to histone H1.

[1] = system: poly(dG-m^5dC) in the Z-form; test: Gel retardation (band shift) and competition assay for Z-DNA binding; conditions: for competition of binding to poly(dG-m^5dC) by non-Z DNA: excess poly(dG-dC), poly(dA-dT), salmon sperm DNA; for affinity for Z-DNA relative to B-DNA: not purified to homogeneity, estimated
Excerpt: Two probes that can be stabilized in the Z-form were used to detect potential Z-DNA binding proteins. One is an ˜600 bp fragment of ^32P-labelled poly(dG-m^5dC) that is stabilized in the Z-DNA form by millimolar concentrations of MgCl2 (Behe and Felsenfeld, 1981); the other is an oligonucleotide, [^32P] (dG-BR^5dC)22, that can be stabilized by millimolar concentrations of MgCl2 or μM concentrations of Co(NH3)6^3+. Yeast whole cell extract, nuclear extracts, and phosphocellulose column fractions of yeast nuclear extracts were assayed by a gel retardation assay using either of these ^32P-labelled DNA fragments as a probe. The gel retardation assay was carried out with the probe in the presence of 10 mM MgCl2 and a 400-fold excess of sheared salmon sperm B-DNA. Under these conditions, the polymer assumes the Z-DNA conformation. A Z-DNA-specific antibody was used for positive control. 1 μl of each fraction of yeast nuclear extract obtained by salt elution from the phosphocellulose column with 0.2-0.5 M potassium phosphate (pH 7.4) was added to the assays.
In order to determine if these band shifts were the result of authentic Z-DNA binding, negatively supercoiled plasmids of pUC19 and pUC19(GC) were used as competitor DNAs in gel retardation competition assays. In these assays, [^32P] (dG-Br^5dC)22 was incubated in the presence of a 2000-fold excess of sheared salmon sperm DNA with additions as follows: 1) no addition; 2) a monoclonal anti-Z-DNA antibody (mAb); 3) mAb plus additional 50 ng of negatively supercoiled plasmid pUC19 (without a Z-DNA insert); 4) mAb plus 25 ng of negatively supercoiled pUC19(CG) (containing a Z-DNA segment); 5) fraction F1 yeast protein; 6) F1 plus additional 50 ng pUC19; and 7) F1 plus pUC19(GC). pUC19(GC) contains a 14 bp (dG-dC)7 insert that can adopt the Z-conformation upon negative supercoiling. pUC19(GC) was assayed for its resistance to BssHII digestion (Vardimon and Rich, 1983; Azorin et al., 1984) to confirm the presence of the Z-DNA prior to the assay.
However, enough material was in solution so that crude cell extracts and partially purified zuotin could be prepared and assayed by the band shift assay. Recombinant zuotin was partially purified by chromatography of crude cell extract from induced pETZU01 transformants through phosphocellulose. ^32P-labelled poly(dG-m5dC) in the Z-form was incubated with the crude cell extract or with partially purified zuotin in the presence of sheared salmon sperm DNA, poly(dG-dC), or poly(dG-Br^5dC). Assays were run on: 1) labelled probe alone; 2) crude cell extract from induced pET8c transformants; 3) crude cell extract from uninduced pETZU01 transformants; 4) crude cell extract from induced pETZU01 transformants; 5) partially purified recombinant zuotin; 6) partially purified yeast zuotin; 7)-10) partially purified recombinant zuotin with 20-, 40-, 100-, and 200-fold excess of salmon sperm DNA; 11)-12) partially purified recombinant zuotin with 20- and 40-fold excess of poly(dG-dC); 13)-14) partially purified recombinant zuotin with 20- and 40-fold excess of poly(dG-Br^5dC); 15)-17) partially purified yeast zuotin with 20-, 40-, and 200-fold excess of salmon sperm DNA; 18) partially purified yeast zuotin with 40-fold excess of poly(dG-dC); 19) partially purified yeast zuotin with 40-fold excess of poly(dG-Br^5dC); and 20) an anti-Z-antibody (as control).
A gel retardation assay was employed to detect proteins with affinity to left-handed Z-DNA. […]

Molecule	binding to B-DNA and conversion to Z-DNA (B-DNA)	competition of binding to poly(dG-m^5dC) by non-Z DNA [1]	also measured
KAHAK	active in converting B-DNA to Z-DNA only when the histidine was protonated (at low pH)	–	–
KAK	able to bind to B-DNA and convert it to the Z conformation	–	–
KAKAK	able to bind to B-DNA and convert it to the Z conformation	–	–
B1	–	cannot be competed by 40-fold excess of poly(dG-dC), 200-fold excess of poly(dA-dT), nor several thousand-fold of salmon sperm DNA	excess of poly(dG-Br^5dC) in the Z-form that completely inhibits binding to the probe [1]: 4 fold; affinity for Z-DNA relative to B-DNA ([1]; listed as yeast zuotin): bound Z-DNA more tightly than the bacterially expressed zuotin; also recorded: several hundred-fold enhanced affinity for Z-DNA relative to B-DNA
B2	–	cannot be competed by 40-fold excess of poly(dG-dC), 200-fold excess of poly(dA-dT), nor several thousand-fold of salmon sperm DNA	affinity for Z-DNA relative to B-DNA [1]: binds less tightly
